Laboratory results as given in US20250314655A1.

B1: CP_03_F09 (scFv, not shown: small tags and cut ends)
scFv: QMQLVQSGAEVKKPGASVKVSCKASGYTFASYYMHWVRQAPGQGLEWMGIINPSGGSTSYAQKFQGRVTMTRDTSTSTVYMELSRLRSDDTAVYYCASNRGGSYKSVGMDVWGQGTTVTVSSGGGGSGGGGSGGGASNFMLTQPQSVSESPGKTVTISCTRSSGNFASKYVQWYQQRPGSSPTTVIYENYQRPSGVPDRFSGSIDSSSNSATLTISGLKTEDEADYYCQSYDEVSVVFGGGTQLTVLGQPAA
B2: CP_03_D09 (scFv, not shown: small tags and cut ends)
scFv: EVQLVQSGAEVKKPGSSVKVSCEASGYTFTSYAISWVRQAPGQGLEWMGWMNPNSGNTGYAQKFQGRVTMTRNTSISTAYMELSSLRSEDTAVYYCARVSSYYGMDVWGQGTLVTVSSGGGGSGGGGSGGGASNFMLTQPLSVSESPGKTVTISCTRSSGSIASNYVQWYQQRPGSAPTTVIYEDNQRPSGVPDRFSGSIDSSSNSASLTISGLKTEDEADYYCQSYNSSNHWVFGGGTKVTVLGQPAA
B3: CP_03_F10 (scFv, not shown: small tags and cut ends)
scFv: EVQLVESGAEVKKPGASVKVSCKASGYTFTGYYMHWVRQAPGQGLEWMGRINPNSGGTNYAQKFQGRVTMTRDTSISTAYMELSSLRSEDTAVYYCARFGERYAFDIWGQGTLVTVSSGGGGSGGGGSGGGASQSELTQPPSASGSPGQSVTISCTGTSTDVGAFHFVSWYQHTPGKAPKLLISEVRKRASGVPDRFSGSRSGNTASLTVSGLQSEDEADYFCSAYTGSNYVFGSGTKLTVLGQPAA
B4: CP_03_C12 (scFv, not shown: small tags and cut ends)
scFv: EVQLVQSGAEVKKPGASVKVSCKASGYTFTGYYMHWVRQAPGQGLEWMGWINPNSGGTNYAQKFQGRVTMTRDTSISTAYMELSSLRSEDTAVYYCARDTGPIDYWGQGTMVTVSSGGGGSGGGGSGGGASDIVMTQTPLSLSVTPGQPASISCKSSQSLLHSDGKTYLYWYLQKPGQPPQLLVYEVSNRFSGVPDKFSGSGSGTDFTLKISRVEAEDVGVYYCMQGIQLPPTFGGGTKVDIKRTAAA
B5: CP_03_H06 (scFv, not shown: small tags and cut ends)
scFv: QVQLVESGGGLVKPGGSLRLSCAASGFTFSDYYMSWIRQAPGKGLEWVSYISSSGSTIYYADSVEGRFTISRDNAKNSLYLQMNSLRTEDTAVYYCARARVGGMDVWGQGTMVTVSSGGGGSGGGGSGGGASNFMLTQPHSVSESPGKTVTISCTRSSGSIASNYVQWYQQRPGSSPTTVIYEDNQRPSGVPDRFSGSIDSSSNSASLTISGLKTEDEADYYCQSFDADNLHVVFGGGTKLTVLGQPAA
B6: CP_03_G09 (scFv, not shown: small tags and cut ends)
scFv: QVQLQQSGPGLVKPSQTLSLTCAISGDSVSSNSAAWNWIRQSPSRGLEWLGRTYYRSKWYNDYAVSVKSRITINPDTSKNQFSLQLNSVTPEDTAVYYCARDQWLANYYYYGMDVWGQGTLVTVSSGGGGSGGGGSGGGASSYELTQPLSVSVALGQTARITCGGNNIGSKNVHWYQQKPGQAPVLVIYRDNNRPSGIPERFSGSNSGNTATLTISKAQAGDEADYYCQVWDSNSWVFGGGTKLTVLGQPAA
B7: CP_03_D05 (scFv, not shown: small tags and cut ends)
scFv: QVQLVESGAEVKKPGASVKVSCKASGYTFTGYYMHWVRQAPGQGLEWMGRINPNSGGTNYAQKFQGRVTMTRDTSISTAYMELSRLRSDDTAVYYCASPRGRGSAFDIWGQGTLVTVSSGGGGSGGGGSGGGASSYELTQPPSVSVSPGQTATISCSGDQLGGKYGHWYQKKPGQSPVLVLYQDRKRPAGIPERFSGSSSGNTITLTISGTQAVDEADYYCQAWDTNLGGVFGGGTKVTVLGQPAA
B8: CP_03_E05 (scFv, not shown: small tags and cut ends)
scFv: EVQLVESGGGVVQPGGSLRLSCAASGFTFSSYAMSWVRQAPGKGLEWVSAISGSGGSTYYADSVKGRFSISRDNSKNTLYLQMNSLRAEDTAVYYCARTRSSGAFDIWGQGTLVTVSSGGGGSGGGGSGGGASNFMLTQPHSVSESPGKTVTISCTRSSGSIASKYVQWYQQRPGSSPTTVIYEDNQRPSGVPDRFSGSIDTSSNSASLTISGLRTEDEADYYCHSYDSNNHSVFGGGTKVTVLGQPAA
B9: CP_01_D12 (scFv, not shown: small tags and cut ends)
scFv: EVQLLESGGGVVQPGRSLRLSCAASGFTFSSYAMHWVRQAPGKGLEWVAVISYDGSNKYYADSVKGRFTISRDNSKNTLYLQMNSLRAEDTAVYYCAKGGDTYGFLDNWGQGTMVTVSSGGGGSGGGGSGGGASDIQMTQSPSTLSASVGDRVTITCRASQSISSWLAWYQQKPGKAPKLLIYKASSLESGVPSRFSGSGSGTDFTLTISSLQPEDFATYYCQQFNAYPLTFGGGTKVEIKRTAAA
B10: CP_01_C11 (scFv, not shown: small tags and cut ends)
scFv: QVQLVESGAEVKKPGASVKVSCKASGYTFTGYYMHWVRQAPGQGLEWMGRINPNSGGTNYAQKFQGRVTMTRDTSISTAYMELSRLRSDDTAVYYCASGGAGWNWGQGTMVTVSSGGGGSGGGGSGGGASNFMLTQPHSVSESPGKTATISCTRSSGSIASNYVQWYQQRPGSAPTTVIYEDNQRPFGVPDRFSGSIDSSSNSASLTISGLKTEDEADYYCQSHDSSNVVFGGGTQLTVLGQPAA
B11: CP_01_D10 (scFv, not shown: small tags and cut ends)
scFv: QVQLVESGGGLVQPGRSLRLSCAASGFTFSSYAMHWVRQAPGKGLEWVAVISYDGSSKYYADSVKGRFTISRDNSKNTLYLQMNSLRAEDTAVYYCAKGGGSFGAFDIWGQGTLVTVSSGGGGSGGGGSGGGASDIQMTQSPSSLSASVGDRVTITCRASQSISRYLNWYQQKPGKAPNLLIYAASSLQSGVPSRFSGSGSGTDFTLTISSLQPEDFATYYCQQYNSYPLTFGGGTKLEIKRTAAA

target: TRBC1 peptide (biotinylated) (human); assay: TRF assay, scFv on biotin-peptide/neutravidin plate

| TRBC1 Binding | Binder |
| --- | --- |
| 889 TRF units | B1 |
| 544 TRF units | B2 |
| 1680 TRF units | B3 |
| 789 TRF units | B4 |
| 391 TRF units | B5 |
| 979 TRF units | B6 |
| 762 TRF units | B7 |
| 1620 TRF units | B8 |

target: TRBC2 peptide (biotinylated) (human); assay: as above

| TRBC2 Binding | Binder |
| --- | --- |
| 298 TRF units | B9 |
| 622 TRF units | B10 |
| 306 TRF units | B11 |
